Measured values published in the DeepSol protein solubility set.

assay: soluble on expression in E. coli; label from the status in PepcDB or PDB records

Sequence	soluble on expression in E. coli
MAQVPPPMTQVVTSAPPPTAAATVVAGAVAGQPQAVIQQGPPPTNIGYPPNATYSMASLYIGDLHPDVSEAMLFEKFSMAGPVLSIRVCRDNTSRLSLGYAYVNFQQPADAERALDTMNFEVIHGRPMRIMWSQRDPAARRAGNGNIFIKNLDRVIDNKSVYDTFSLFGNILSCKVATDDEGNSKGYGFVHFETEHSAQTAIEKVNGMLLSDKKVYVGKFQPRAQRMKELGESGLKYTNVFVKNFGEHLDQEKLSAMFSKFGEITSAVVMTDAQGKPKGFGFVAFADQDAAGQAVEKLNDSILEGTDCKLSVCRAQKKSERSAELKRKYEALKQERVQRYQGVNLYVKNIEEDLNDDGLRDHFSSFGTITSAKVMVDENGRSKGFGFVCFEKPEEATAAVTDMNSKMIGAKPLYVALAQRKEDRRAQLASQYMQRLATLRMGQQASGVPAMTQLYQPGQQGYFVPNPMNAQGRPGFQPQSAQIRGPPGQRVFQNQMFMQYPFNQRQVYPQQQGRPPMRTNDGRPQYGMAPRPAGAPRVGGPGVQMGGAPIRQQGPAPRGAPQKPFYQGPPRQQQPQQHSQQPAQQPGQQGQGQSGIVIHGQETLTSHMLAQAAPQEQKQLLGERIYALIEKMFPNHKEAGKITGMMLEIDNAELIMMLQDAELFRSKVEEAFGVLTNAQSAAASTSAPTAKN	not soluble
MAHHHHHHMWRRAACQAVTSRFFRPAVAASTASSSSALRESCRTGIIIGNPKQGMIDPIHVSWTDIAGSDTTPGARLAAGRVLAMLDMCAARTSQKAIDHQDCLTHERYLTCTVGVTNTMFSSPILHGDAVRLDGRLVCCGSSSMGIYIRFYRQSPSTRTETPAGHSFFTMVAITPDLKAAKVVPAIELTDPLDIELHNHYVKVRKLQEENKKNTAERLKRTLTTEEVQCSINQQKPIHARINSTRVEANRIFFTSCMNNNNTVFGGELMAWMEQHAVHCGRMFTGNRYVFTIGMHSVAFPEPVFATDWVTLEATVIYVRNTTMEVDVVLKAERKDAGTVITNRASFVLINNDDIGRKCAIPIGLELNGATQEELQQFMEARVRYHCSVARRDDFHASNLCTGTTKL	not soluble
MLMIKVVCGKKGSGKTRALVDSANSFVSTALGDAVFIDGSSQLMCDLHHKVRFINVSEFPIDISSSCTFLGFLCGIISSNFDVKWVYMDDLIRIVRKPPHEMKELFDGFNELSEKFNVDFYVSIEGDPDSMPDFIKVCY	not soluble
MVCSRSVSLLFTLLVGVYASTATDPIDSISTQGADILNRAKLTGQTVRQCSCSEQRVCVEEMKLQAKDCTVPCFQKFSSITSRPNDLKKCFDEKDNILEDFLTCFENRVEACVNDQHGPQIQKTDIRGIFKVTEKSIATQTNTFQTMIKPIKHILDATGDFALCVKDCFLEKNKSGFCFDRKGCQPLVAETKARQSFRACTKKMHWKREAGELCECSVQAGVDSRELRQYCAMFKLMRRRAPMRKSRG	not soluble
MVRLIHTLADHGDDVSCCAFSAALLATCSLDKTIRLYSLSDFAELPYSPLKFHTYAVHCCCFSPSGHVLASCSTDGTTVLWSSHSGHTLTVLEQPGGSPVRVCCFSPDSAYLASGAADGSIALWNAQTYKLYRCGSVKDSSLVACAFSPDGGLFVTGSSGGDLTVWDDRMRCLHSEKAHDLGITCCSFSSQPLSGGEGLQSYQLASCGQDCEIKLWAVTITRVLGFELKYKSTLSGHCAPVLACAFSHDGKMLASGSVDKSVIIHGIGPQSVLHTLTQHTRYVTTCAFAPNTLLLATGSMDKTVNIWQFDLETPCQGSMNDPLKHFTEEWSEEDVSVWLRAQGLEDLVGIFRANNIDGKELLHLTKESLAGDLKIESLGLRSKVLRSIEELRAKMDSLSSGIPDEFICPITRELMKDPVIASDGYSYEREAMESWIHKKKRTSPMTNLALPSLVLTPNRTLKMAINRWLETHEK	soluble
MNIVSWKDANDEVAGGATTRREREVKEDQEETEVRATSGKTVIKKQPTSISSSSSSWMKSKDPRIVRVSRAFGGKDRHSKVCTLRGLRDRRVRLSVPTAIQLYDLQERLGVDQPSKAVDWLLDAAKEEIDELPPLPISPENFSIFNHHQSFLNLGQRPGQDPTQLGFKINGCVQKSTTTSREENDREKGENDVVYTNNHHVGSYGTYHNLEHHHHHHQHLSLQADYHSHQLHSLVPFPSQILVCPMTTSPTTTTIQSLFPSSSSAGSGTMETLDPRQMVSHFQMPLMGNSSSSSSQNISTLYSLLHGSSSNNGGRDIDNRMSSVQFNRTNSTTTANMSRHLGSERCTSRGSDHHM	soluble
MGSDKIHHHHHHMRALSFIFIALILVGCNEPAKEITKPIRPIMWTKVKISPFEQIRTLSGIVAPVEATKLSFEVQGKIQTIEVNLGNEVVKGQELARLNQRNFNLGLQSAQAQYQQAKATLIDARNSHRRYEQLLKQGVVSQSGFDNAKATYDASKSAADVAQAQLDIASKNLQDSILLAPYDGIITKRLYEPSQQISAGQSLFEIEGKHGLEVHVMVPETLIRELRQLSILPIHFPVLPELTMQGQITEIGTRAEYANAFPVTAVLEGDNPLLRAGMTAEVDFSFSGTGRTGHTGDVFRIPATALSAGLEQKAYVFVYNPDSQQVIKTQVQTENIFKNEVFISSGLKQGDIIAIAGVAFLRDGQQVSLTDNNVQRFN	not soluble
MGSDKIHHHHHHMAIGTLEATTLIRGRAMTTVLPSPELIASFVDIVGPGNALTAPADTAPYLVESRGLYRGTTPLVLRPGSVEEVSLVMRLASQTRTAVVPQGGNTGHVAGQIPREGKADVVLSLERLNRIRDIDPVGNVIVADAGCILADIQKAADDVDRLFPLSLGSEGSARIGGNLSTNAGGTAVLAYGNMRQLCLGLEVVLPTGEIWDGLRRLRKDNTGYDLRDLFIGAEGTLGVITGAVLKLFPKPRGHQVAFAGLRSVEDALTLFDRATSVCGPALTGFELMPRLGIEFTTRHIAGVRDPMETTHPWYALIDISTSDTAESAERMVQDLLEAVIADGLVENAVIAQNEAQRRALWHMRESMSPAQKPEGGSIKHDVSVPVSSIPAFMTEADALVSKAIPGARICAFGHMGDGNIHYNISQPVGADKQSFLDRWREINAIVHAVVLKHDGSISAEHGIGQLKRDELAAIRSPIEIELMRRIKHAFDPAGIMNPDKVLREDRGE	not soluble
MNIITLKVAIVEPLPMIRAGLEALLKKITGYKIQFIDAPADNGWVDVISFYCPDVVFMNPLVSGLTRNESDKACPQSRYVGLLTTPIDSNMLHNYDDTLSVHATVEELKQLLERLYQKTLEPEESGEEQQTLTNREKEIVVGVVKGMTNKEIAEELFLSTHTVITHRRNIAKKLQIHSPSGLTIYAIMNKLVNLDEIAH	not soluble
MSLSGIFNWSLDVFADIYNTLKFESNIDLDTIDFTSIKNDLANVLITPVPLDQSRSKLGDASKPVALPSGDEVKLNQASIEITGVLSNELDLDELNTAELLYNASDLSYKKGTSIGDSARLAYYLRAHYILNIVGYLVSHKRLDIITNNNQVLFDNILKSFSKIYTLSGKLNDMIDKQKVTGDINNLAFINCINYSRSQLFNAHELLGQVVFGLADNYYESYGTLNNYKSLVEFILKNISDEDVFVIHFLPSTLQLFKKLLQLGEESLVDQFYKTITSSILKDYEANNFSKSEDIDLSKSKLSGFEIVTSFIFLTEFIPWCKQLSSRTAKYDFKDDILKYMEFLISYGVMERLLSYCSETANAKTQQVYDWSNMYDFRALLQKNFPRLTPAKFHYPGNQELLNAVRPGYENVSKLIDISFLTLDPSLNETLVSPFFQSFFSVFISNAAVVMTSLRDSEEDFVLSSLNESDEGHHHHHH	soluble
MGSDKIHHHHHHKYTLRFGHVLAPGEPYHQAFLKWAKAVEEKTNGDVRIEVFPSSQLGVEEDIIEQIRMGAPVGWNTDSARLGMYVKDIGVMNLAYFIDFMGAKTPEEAIEVLKKIKQSPTMQKWLKELEQRFGIKVLSFYWVQGYRHFVTNKPIRKPEDLNGLRIRTPGAPAWQESIRSLGAIPVAVNFGEIYTAVQTRAVDGAELTYANVYNGGLYEVLKYMSETGHFLLINFEIVSADWFNSLPKEYQKIIEEEMDKAGIEVSLKIMKELEEEYKQKCIEKGMAVIPASEIDKEAFMEKAKQAYKNLGLENALNQLIKEVKGE	not soluble
ADPALADVCRTKLPSQAQDTLALIAKNGPYPYNRDGVVFENRESRLPKKGNGYYHEFTVVTPGSNDRGTRRVVTGGYGEQYWSPDHYATFQEIDPRC	soluble
MGSDKIHHHHHHMRLGFYNIQGGTGKTTIAANIGYYLSDKTKTVYVDCDIYAGCGALLFGFEDSPHTLNSYLSGASALTDIIHQFDDLSVIVADSTPNSFNTEINQKRMLELIRVLNDNYDIVLLDLPPNITEGNLLFSSLNLEEKVVNKMIVVAEDSIPGIANTMKTKELLYAIDIDCIGVIVNKFKDTVDFDEALDDIIAILPYDKKVENQWMENVPAVQMKSKFSKELSYLAEDLAEVYIKKDLAAVRALKVAKELKDMTSKRQDVEEDEF	not soluble
MMNEKILIVDDQYGIRILLNEVFNKEGYQTFQAANGLQALDIVTKERPDLVLLDMKIPGMDGIEILKRMKVIDENIRVIIMTAYGELDMIQESKELGALTHFAKPFDIDEIRDAVKKYLPLKSN	soluble
MAEEIQMYDDAASVAFIRNFIPQELKEKMTDDDIVYIVDLIYDFYESRGFMDMAEDSEETVEVDEDELVEYVVKNAARDEVGHFSADEIRFVVQGELEYCESINLFEED	not soluble
GPGSMTTPNFELYGYFRSSCSGRLRIAFHLKSIPYTRHPVNLLKGEQHSDTYKSLNPTNTVPLLVVSNINNTVSPSSASFSIGQSLAALEYLEEALPTNARPLLPPISNPVARAHVRTICNIIACDVQPVTNLKIQKKVKALDGDPTVWSRDLATQGFGAVEKLLELSAGRFCVGDEITLADVCLVPAVWAAERVGMDLARFPITKRVFEEMLKEEAVQKAHWQKQEDTPEDLRA	soluble
AAAKPADKALQAQLPEMALPREAAPRLDGLAAVLPQIHPAEAGKPAESFSLALPPSQPESWSGKLQAALGERLQAMPAQNMDRATLRLDPPSLGTLEISLRHQAGALTVELTASHGEVVRQLQGIGEALRQDLGGRQYTQVAVEVREGM	not soluble
MGSDKIHHHHHHASCEDDEVEYAPLAVTRVSTVLDREQGIDQANLAQYIIVQGTGLNAVNSILVNDVQVDLKDAYITSGEITFPIPRVIPGEINNLITLGSGNSTVTAPISVFIPELEVNGMFNEFTPAGDTMKVVGDYFDLYEITTESGQLFFGGKEVKITKSTGNSLSFVLPEDAVMGSKIKLVSPVCGEVTVPGKYMEKGNMLCDFDPFTGWGGSKYVIDGPVPAPYSGYFSRFKINKGDANDWDWNEVTTIAQCAVEYSPEVIADQNKYLLKFEVNTIKPLTKRQIRFYFSQINYDWEPFASGLALNTNGEWKTVSIDLGEMWKGDIPNDGVLQIMGNSWAEDTDICFDNFRIVPKD	not soluble
MSLNYVAEIDLLAEELAQELEIEGGETYGILAAHLRSLYGIHITRTEAAGGLIRHFDPAGKTLALSSYMAAPTRCFQLALQIAQLHAGATVDRVLAGAGFRNAEAAEICRIGLHNYFAAALILPYGQFHRAAQELRHDLELLAVRFGASLEQVAHRLSTLQRPGMKGVPIFFAKIDRAGNITKRHSATRLQFARFGAACPLWNIHQAFESSDRIVRQLAETPDGVRYLSIATQIEKAGAGFNTERPRYAIALGCEISHAQNFVYADTLDLGNAASFKPIGISCRVCERVDCVQRAVPPLKRKLHFDHLSRGALPYQIAEGHHHHHH	not soluble
MNFRTDSIDDLDKFKKEFKPVMHLKGDAFNQQLQSLINKYPQIQKNMKSEFIAYYDKEKNRETVKNYAWNLQKSINDIMQSYPSTKFVQFYKDDVSPSMVDGNGRLKSDTNVISIEGGKYDENKLEHHHHHH	soluble
MGSDKIHHHHHHMLNIVVVAHPDDEILGFGATGAKLAAKGEVVQPIILCGSVDARTLRPTDEELHSDMLKANSLVGFSKPVLGDFPNISMNTVPHVELVQFIEEQIKKFRPNRIFTHHPNDLNNDHTQVSNACLAASRLFQRRNDLPALEALYFMEILSSTDWAFPAVGDGFKPTTFVEITCELEKKLAALHHYRNVMRPFPHPRSDEVVTGLAAYRGGQAGLKYAEAFQLVFKQGV	not soluble
